Source: PMC4414194

Legend:
[1] = molecular target: HDAC3 (UniProt O15379); assay: anti-GFP co-IP, anti-Flag blot; conditions: reference: GATA1 wild type; sites S161,S187
[2] = molecular target: HDAC4 (UniProt P56524); assay: anti-GFP co-IP, anti-Flag blot; conditions: reference: GATA1 wild type; sites S161,S187

binding against the reference [1]: weaker
binding against the reference [2]: weaker
Substance: GATA1 (from UniProt P15976) GATA1 S161A S187A
